From paper PMC7521798 (Molecular Biology of the Cell, 2020)

Biological target: GFP-IQGAP1 ∆GRD (1004–1237 aa deleted) (UniProt P46940 1-1657, 1004–1237 aa deleted)
Experiment: co-IP

fold less association with R-ras than IQGAP1, IQGAP1 ∆IQ or IQGAP1 ∆WW: 5 fold
B1: R-ras (natural protein, mouse (endogenous in NIH-3T3 and MEFs), UniProt P10833 1-218, looked up)
chain: MSSGAASGTGRGRPRGGGPGPRDPPPGETHKLVVVGGGGVGKSALTIQFIQSYFVSDYDPTIEDSYTKICTVDGIPARLDILDTAGQEEFGAMREQYMRAGNGFLLVFAINDRQSFNEVGKLFTQILRVKDRDDFPIVLVGNKADLENQRQVLRSEASSFSASHHMTYFEASAKLRLNVDEAFEQLVRAVRKYQEQELPPSPPSAPRKKDGGCPCVLL
